This is an account of results in patent US20140227188.

This data set concerns T1, Cathepsin E-activatable 5-ALA prodrug, H-Arg-Gln-Ala-Gly-Phe-Ser-Leu-5-ALA-OH.
T1 sequence: RQAGFSL

On to “Cathepsin B (purified proteolytic enzyme)”, for which the “proteolytic cleavage of the prodrug, LC-MS (50 pmol and 100 pmol enzyme)” value was “A higher concentration of Cath B and D (100 pmol) showed no sign of cleavage of the 5-ALA prodrug at the link between 5-ALA and the rest of the peptide substrate”.

As for “Cathepsin D (purified proteolytic enzyme)”, the “proteolytic cleavage of the prodrug, LC-MS (50 pmol and 100 pmol enzyme)” value was “A higher concentration of Cath B and D (100 pmol) showed no sign of cleavage of the 5-ALA prodrug at the link between 5-ALA and the rest of the peptide substrate”.

As for “Cathepsin E (purified proteolytic enzyme)”, the “proteolytic cleavage of the prodrug, fragments identified by LC-MS (50 pmol enzyme)” value is given as “Cath E was the only tested protease capable of cleaving the 5-ALA prodrug to two major metabolic fragments”.
